Results taken from US11110182B2, “Multifunctional RNA nanoparticles and methods for treating cancer and therapeutic resistant cancer” (University of Cincinnati, priority 2016, dated 2021).

What was measured:
Assay type in all cases: cell-based, human
MED1 = MED1 protein level by western blots in MCF-7/HER2 cells; settings: MCF-7/HER2, 10 μg/mL, 48 h
Protocol: (§1) FIGS. 10A-10D. Evidence that pRNA-HER2apt-siMED1 nanoparticles silenced MED1 expression and sensitized two other HER2+ breast cancer cells to tamoxifen treatment. FIG. 10A) Two HER2-overexpressing breast cancer cell lines MCF7/TAM and FIG. 10B) MCF7/HER2, were treated with 10 μg/mL pRNA-HER2apt-siMED1 nanoparticles or scramble control for 48 h, and then MED1 protein level was determined using western blots. FIG. 10C) MCF7/TAM and FIG. 10D) MCF7/HER2 cells were treated with 10 μg/mL pRNA nanoparticles and/or 1 μM tamoxifen (TAM) as indicated for 48 h, and then cell growth was determined using an MTT assay.
Next, the ability of pRNA-HER2apt-siMED1 nanoparticles to silence the expression of MED1 in BT474 and MDA-MB-231 human breast cancer cells was examined. Using real-time PCR analyses, a significant depletion of nearly 70% of MED1 mRNA in BT474 cells after pRNA-HER2apt-siMED1 but not pRNA-HER2apt^mut-siMED1 treatment was found (FIG. 3A).

MCF-7/HER2 cells = test: MTT assay, MCF-7/HER2 cells; settings: MCF-7/HER2, 10 μg/mL pRNA and 1 μM tamoxifen, 48 h
Protocol: as §1
Since MED1 has recently been reported to play key roles in tamoxifen resistance of human breast cancer, the combinational effects of pRNA-HER2apt-siMED1 nanoparticles with tamoxifen on the growth and metastatic potential of BT474 cells was examined. […] The combinational effect of pRNA-HER2apt-siMED1 nanoparticles with tamoxifen treatment on two other HER2-overexpressing breast cancer cells MCF-7/HER2 and MCF-7/TAM were also confirmed (FIGS. 10C-D).

BT474 cells = test: In vitro mammosphere culture assay, BT474 cells
Protocol: FIG. 4A) BT474 cells were treated with pRNA nanoparticles in combination with vehicle or 1 μM 4-hydroxy-tamoxifen (4-OHT) as indicated for 48 h, and assayed for cell viability by MTT assay. FIG. 4B) Cells were treated as above and the migration and FIG. 4C) invasion capabilities were examined. FIG. 4D) Cells were treated as above and assayed for in vitro mammosphere formation. FIG. 4E) The number of mammospheres was counted, and FIG. 4F) the mammosphere size was calculated. Scale bar: 10 μm.
Migration and metastasis assay. The 8-μm-pore-size polycarbonate membrane, which separates the two chambers of a 6.5-mm Transwell (Costar), was coated with or without 1:8 DMEM-diluted Matrigel (Corning). Transwell assay was performed as previously described.^57 Briefly, BT474 cells were treated with pRNAs alone or together with 4-hydroxy-tamoxifen (4-OHT) for 48 h and starved with serum-free DMEM containing 0.2% BSA overnight. On the next day, cells were collected and 2×10^5 cells were seeded to the upper chamber of Transwell. The lower chamber was filled with 600 μL DMEM medium containing 10% FBS. After incubation at 37° C. for 24 h, cells on the membranes were fixed and stained with 0.1% crystal violet in 20% ethanol solution. Cells at top side of membranes were removed completely, and cells at the bottom side were examined with an Olympus SZX12 microscope and counted. • Mammosphere culture and breast cancer stem cell analyses. BT474 cells were treated with pRNAs for 48 h. Then, cells were suspended in DMEM/F12 medium supplemented with 1×B27 (Thermo Fisher), 20 ng/mL bFGF and 20 ng/mL EGF (R&D), and added into 24-well ultralow attachment plates. After treatment with or without 1 μM 4-OHT for 7 days, mammosphere formation was recorded using an Axiovert S100 TV inverted microscope (Zeiss). Xenograft tumor tissues were cut into small pieces and digested with trypsin and collagenase at 37° C. for 1 h, and tumor cells were collected and rinsed with pre-cold PBS. All cells were stained with FITC-conjugated anti-CD44 antibody and PE-conjugated anti-CD24 antibody (BD Pharmingen) in the dark on ice for 30 min. After resuspension with 0.5 mL PBS buffer, CD44^+/CD24^−/low cell population was analyzed by flow cytometry. • Orthotopic xenograft breast tumor mouse model, in vivo imaging and anti-tumor therapy. […] The tumor volume was monitored every 3 days, and tumor size was calculated using the formula: volume=0.5×(width)^2×(length). […] After the tumor weights were recorded, part of the tumor tissues were digested with trypsin and collagenase, lysed for extraction of total proteins and RNAs, or fixed in 10% neutral buffered formalin along with organ tissues, respectively, for further western blot, real-time PCR and IHC studies, etc. […]

[1] = BT474, in combination with tamoxifen (1 μM 4-OHT, 7 days)

B1: pRNA-HER2apt-siMED1: 3-WJ pRNA nanoparticle bearing a HER2-targeting RNA aptamer and two different MED1 siRNAs; strands p1 SEQ ID NO: 3, p2 SEQ ID NO: 4 (nucleic acid)
chain 1: GGACAGUGAAAGUGAGUCAAAGGAUCAAUCAUGGCCAAAGAUGUUACUUUGAGAGCCUU
chain 2: GGCUCUCAAAGUAACAUCUAAGGCCAUGUGUAUGUGGGGGGAGGACGAUGCGGUCUGCUGUGCUUGAUAUGCCCCAGACGACUCGCCCCCCACAUACUUUGUUGAUCCAAUGACUCACUUUCACUGUCCUU
modifications: 2'-F modification; third strand may lack entry; pRNA-HER2apt-siMED1, p1; pRNA-HER2apt-siMED1, p2
With B1 the MED1 silencing (MED1) was “confirmed”, the “combinational effect with tamoxifen on cell growth” value (MCF-7/HER2 cells) was “confirmed” and the “number of mammosphere formation” value (BT474 cells; [1]) was “greatly reduced”. For the same molecule, the size of mammospheres (BT474 cells; [1]) was “greatly reduced”, the “number of mammosphere formation” value (BT474 cells; BT474, nanoparticles alone) was “greatly reduced” and the size of mammospheres (BT474 cells; BT474, nanoparticles alone) was “greatly reduced”.
